Data from patent US20240360238A1 (MAGENTA THERAPEUTICS, published 2024).
Substitutions are numbered along the chain they refer to.

B1: CD117-ADC (anti-CD117 antibody CK6 conjugated to amatoxin) (antibody, V domains shown)
VH: QVQLVQSGAAVKKPGESLKISCKGSGYRFTSYWIGWVRQMPGKGLEWMGIIYPGDSDTRYSPSFQGQVTISAGKSISTAYLQWSSLKASDTAMYYCARHGRGYNGYEGAFDIWGQGTMVTVSS
VL: AIQLTQSPSSLSASVGDRVTITCRASQGISSALAWYQQKPGKAPKLLIYDASSLESGVPSRFSGSGSGTDFTLTISSLQPEDFATYYCQQFNSYPLTFGGGTKVEIK
modifications: antibody conjugated to an amatoxin; site and linker not stated for this assay
B2: HC-249/LC-249 ADC (Ab249 conjugated to an amatoxin) (antibody, V domains shown)
VH: B1 VH with Q1E, A10E, S31T, Y32S, G73D, R101L, M118L
VL: B1 VL with A1D, L4M, S30G, S53N, S56T, F91L, S93G, G100Q, K103R, V104L
modifications: antibody conjugated to an amatoxin; site not stated

How the values were obtained:
Test in all cases: cell-based or functional assay
[1] = biological target: T1, CD117 on Kasumi-1 cells and primary human CD34+ bone marrow cells (human, UniProt P10721 26-976)
[2] = biological target: T1, CD117 on Kasumi-1 cells and primary …; remark: listed apart in the source
[3] = biological target: T1, CD117 on Kasumi-1 cells and primary …; remark: listed apart in the source

T1 sequence (P10721 26-976): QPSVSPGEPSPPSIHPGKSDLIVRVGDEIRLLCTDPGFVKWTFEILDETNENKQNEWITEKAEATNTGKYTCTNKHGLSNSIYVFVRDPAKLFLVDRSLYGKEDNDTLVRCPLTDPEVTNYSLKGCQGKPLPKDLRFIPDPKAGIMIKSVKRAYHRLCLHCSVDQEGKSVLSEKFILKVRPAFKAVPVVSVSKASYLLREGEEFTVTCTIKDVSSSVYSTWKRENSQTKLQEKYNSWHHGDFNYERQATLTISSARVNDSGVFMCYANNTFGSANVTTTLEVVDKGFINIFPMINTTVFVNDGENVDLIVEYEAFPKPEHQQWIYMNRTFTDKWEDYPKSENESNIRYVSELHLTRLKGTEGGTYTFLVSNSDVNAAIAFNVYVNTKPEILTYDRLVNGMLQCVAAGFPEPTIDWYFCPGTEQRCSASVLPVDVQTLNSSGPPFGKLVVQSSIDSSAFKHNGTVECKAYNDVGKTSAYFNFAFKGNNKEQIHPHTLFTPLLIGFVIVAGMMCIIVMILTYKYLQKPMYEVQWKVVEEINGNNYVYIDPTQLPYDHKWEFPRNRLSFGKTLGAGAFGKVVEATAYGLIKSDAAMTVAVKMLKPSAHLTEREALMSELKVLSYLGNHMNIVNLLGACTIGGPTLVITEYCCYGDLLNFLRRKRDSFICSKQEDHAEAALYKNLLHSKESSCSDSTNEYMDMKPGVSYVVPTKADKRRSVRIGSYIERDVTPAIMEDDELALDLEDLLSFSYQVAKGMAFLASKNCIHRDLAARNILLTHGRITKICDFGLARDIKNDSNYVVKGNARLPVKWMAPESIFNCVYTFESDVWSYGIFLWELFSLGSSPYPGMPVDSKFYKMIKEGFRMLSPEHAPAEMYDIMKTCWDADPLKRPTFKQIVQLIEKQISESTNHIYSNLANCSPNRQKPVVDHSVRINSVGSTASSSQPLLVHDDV

Row | Binder | % efficacy, killing of primary human CD34+CD90+ cells [1] | IC50, killing of primary human CD34+CD90+ cells (5 days, flow cytometry counts) [1] | IC50, in vitro killing of Kasumi-1 cells (Celltiter Glo) [2] | IC50, in vitro killing of primary human CD34+ bone marrow cells [2] | IC50 (M), Kasumi-1 cell killing (Celltiter Glo, 3 days) [3]
1 | B1 | 70.8% | 0.00977 nM | 1600 nM | 21000 nM | 1.48e-11 M
2 | B2 | 52% | 0.00667 nM | – | – | 2.5e-11 M
